The text below walks through data of US20250257357.

Data set [1] deals with C-terminal SNAP-tagged H3.3 G34R (UniProt P84243).
The target in data set [2] is C-terminal SNAP-tagged H3.3 K27M (UniProt P84243).

With “Polynucleotide Kinase 3′-Phosphatase (PNKP)”, the “NHEJ activity by random plasmid integration assay upon knockdown of PNKP” value is “it does reduce NHEJ in H3.3K27M and G34R cells” in data set [1]; “it does reduce NHEJ in H3.3K27M and G34R cells” in data set [2].
